Measurements taken from the supplement of paper PMC5998384.

How the values were obtained:
HeLa Kyoto [1] = test: solubility in G1/S (NP-40 vs SDS abundance) (log2 ratio); higher = more soluble; conditions: cell cycle stage: G1/S
HeLa Kyoto [2] = test: solubility change mitosis vs G1/S (difference of NP-40 vs SDS log2 ratios) (log2 ratio difference); higher = more soluble in mitosis
HeLa Kyoto [3] = test: thermal stability score vs G1/S (z-score of summed log2 fold changes over temperatures); higher = more thermally stable than in G1/S
HeLa Kyoto [4] = test: melting temperature (median over replicates), in situ; higher = more thermally stable
[5] = cell cycle stage: early G1 (4.5 h after nocodazole release)
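Wherever melting temperature (median over replicates), in situ is given: HeLa Kyoto cells synchronized by double thymidine or nocodazole block, proteins quantified by TMT10plex mass spectrometry, three independent biological replicates.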
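Wherever solubility change mitosis vs G1/S (difference of NP-40 vs SDS log2 ratios) is given: synchronized HeLa Kyoto cells (double thymidine block for G1/S, nocodazole release for mitosis), protein amounts in NP-40 versus SDS lysates quantified by mass spectrometry, three biological replicates.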
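Wherever solubility in G1/S (NP-40 vs SDS abundance) is given: HeLa Kyoto cells arrested at G1/S by double thymidine block, proteins quantified by TMT10plex mass spectrometry in mild NP-40 versus SDS extracts, three biological replicates.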
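Wherever thermal stability score vs G1/S (z-score of summed log2 fold changes over temperatures) is given: synchronized HeLa Kyoto cells, proteins quantified by TMT10plex mass spectrometry, three biological replicates, mitosis taken 0.5 h after nocodazole release, G1/S directly after double thymidine block.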

Sequence of TAF6 (chain, as listed by the source): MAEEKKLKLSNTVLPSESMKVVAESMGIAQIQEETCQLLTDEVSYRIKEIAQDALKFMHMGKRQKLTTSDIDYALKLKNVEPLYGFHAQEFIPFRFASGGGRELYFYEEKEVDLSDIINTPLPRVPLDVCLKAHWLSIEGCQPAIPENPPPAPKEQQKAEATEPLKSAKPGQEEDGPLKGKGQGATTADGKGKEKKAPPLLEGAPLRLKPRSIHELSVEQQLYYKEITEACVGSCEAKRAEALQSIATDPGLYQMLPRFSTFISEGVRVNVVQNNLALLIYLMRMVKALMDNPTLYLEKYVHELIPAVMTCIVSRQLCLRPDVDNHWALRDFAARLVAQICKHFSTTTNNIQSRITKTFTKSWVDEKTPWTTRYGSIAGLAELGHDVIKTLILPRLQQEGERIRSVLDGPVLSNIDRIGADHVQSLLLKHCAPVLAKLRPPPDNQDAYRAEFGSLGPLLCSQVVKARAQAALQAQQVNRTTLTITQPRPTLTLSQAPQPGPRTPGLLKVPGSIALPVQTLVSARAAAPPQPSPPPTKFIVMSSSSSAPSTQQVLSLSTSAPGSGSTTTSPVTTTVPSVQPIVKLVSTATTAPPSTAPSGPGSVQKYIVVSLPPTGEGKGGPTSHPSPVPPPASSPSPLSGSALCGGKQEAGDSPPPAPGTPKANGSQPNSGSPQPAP

Substance | solubility in G1/S (log2) (HeLa Kyoto [1]) | solubility change mitosis (log2) (HeLa Kyoto [2]) | thermal stability score (HeLa Kyoto [3]; [5]) | thermal stability score (HeLa Kyoto [3]; cell cycle stage: mitosis) | melting temperature (HeLa Kyoto [4]; cell cycle stage: G1/S) | melting temperature (HeLa Kyoto [4]; cell cycle stage: mitosis)
MAAVAAEAAATAASPGEGGAGEAEPEMEPIPGSEAGTDPLPVTATEASVPDGETDGQQSAPQADEPPLPPPPPPPGELARSPEAVGPELEAEEKLSVRVAESAAAAPQGGPELPPSPASPPEQPPAPEEREEPPLPQPVAPALVPPAGGDSTVSQLIPGSEVRVTLDHIIEDALVVSFRFGEKLFSGVLMDLSKRFGPHGIPVTVFPKREYKDKPEAMPLQSNTFQEGTEVKCEANGAVPDDPSPVPHPELSLAESLWTSKPPPLFHEGAPYPPPLFIRDTYNQSIPQPPPRKIKRPKRKMYREEPTSIMNAIKLRPRQVLCDKCKNSVVAEKKEIRKGSSATDSSKYEDKKRRNESVTTVNKKLKTDHKVDGKNQNESQKRNAVVKVSNIAHSRGRVVKVSAQANTSKAQLSTKKVLQSKNMDHAKAREVLKIAKEKAQKKQNETSTSKNAHSKVHFTRRYQNPSSGSLPPRVRLKPQRYRNEENDSSLKTGLEKMRSGKMAPKPQSRCTSTRSAGEAPSENQSPSKGPEEASSEVQDTNEVHVPGDQDEPQTLGKKGSKNNISVYMTLNQKKSDSSSASVCSIDSTDDLKSSNSECSSSESFDFPPGSMHAPSTSSTSSSSKEEKKLSNSLKMKVFSKNVSKCVTPDGRTICVGDIVWAKIYGFPWWPARILTITVSRKDNGLLVRQEARISWFGSPTTSFLALSQLSPFLENFQSRFNKKRKGLYRKAITEAAKAAKQLTPEVRALLTQFET [PWWP2A] | -0.7 | 0.43 | 1.31 | 1.07 |  | 
MANSMNGRNPGGRGGNPRKGRILGIIDAIQDAVGPPKQAAADRRTVEKTWKLMDKVVRLCQNPKLQLKNSPPYILDILPDTYQHLRLILSKYDDNQKLAQLSENEYFKIYIDSLMKKSKRAIRLFKEGKERMYEEQSQDRRNLTKLSLIFSHMLAEIKAIFPNGQFQGDNFRITKADAAEFWRKFFGDKTIVPWKVFRQCLHEVHQISSGLEAMALKSTIDLTCNDYISVFEFDIFTRLFQPWGSILRNWNFLAVTHPGYMAFLTYDEVKARLQKYSTKPGSYIFRLSCTRLGQWAIGYVTGDGNILQTIPHNKPLFQALIDGSREGFYLYPDGRSYNPDLTGLCEPTPHDHIKVTQEQYELYCEMGSTFQLCKICAENDKDVKIEPCGHLMCTSCLTAWQESDGQGCPFCRCEIKGTEPIIVDPFDPRDEGSRCCSIIDPFGMPMLDLDDDDDREESLMMNRLANVRKCTDRQNSPVTSPGSSPLAQRRKPQPDPLQIPHLSLPPVPPRLDLIQKGIVRSPCGSPTGSPKSSPCMVRKQDKPLPAPPPPLRDPPPPPPERPPPIPPDNRLSRHIHHVESVPSRDPPMPLEAWCPRDVFGTNQLVGCRLLGEGSPKPGITASSNVNGRHSRVGSDPVLMRKHRRHDLPLEGAKVFSNGHLGSEEYDVPPRLSPPPPVTTLLPSIKCTGPLANSLSEKTRDPVEEDDDEYKIPSSHPVSLNSQPSHCHNVKPPVRSCDNGHCMLNGTHGPSSEKKSNIPDLSIYLKGDVFDSASDPVPLPPARPPTRDNPKHGSSLNRTPSDYDLLIPPLGEDAFDALPPSLPPPPPPARHSLIEHSKPPGSSSRPSSGQDLFLLPSDPFVDLASGQVPLPPARRLPGENVKTNRTSQDYDQLPSCSDGSQAPARPPKPRPRRTAPEIHHRKPHGPEAALENVDAKIAKLMGEGYAFEEVKRALEIAQNNVEVARSILREFAFPPPVSPRLNL [CBLB] | -0.447 | 0.0975 | -0.843 | -0.129 |  | 
MALAVLRVLEPFPTETPPLAVLLPPGGPWPAAELGLVLALRPAGESPAGPALLVAALEGPDAGTEEQGPGPPQLLVSRALLRLLALGSGAWVRARAVRRPPALGWALLGTSLGPGLGPRVGPLLVRRGETLPVPGPRVLETRPALQGLLGPGTRLAVTELRGRARLCPESGDSSRPPPPPVVSSFAVSGTVRRLQGVLGGTGDSLGVSRSCLRGLGLFQGEWVWVAQARESSNTSQPHLARVQVLEPRWDLSDRLGPGSGPLGEPLADGLALVPATLAFNLGCDPLEMGELRIQRYLEGSIAPEDKGSCSLLPGPPFARELHIEIVSSPHYSTNGNYDGVLYRHFQIPRVVQEGDVLCVPTIGQVEILEGSPEKLPRWREMFFKVKKTVGEAPDGPASAYLADTTHTSLYMVGSTLSPVPWLPSEESTLWSSLSPPGLEALVSELCAVLKPRLQPGGALLTGTSSVLLRGPPGCGKTTVVAAACSHLGLHLLKVPCSSLCAESSGAVETKLQAIFSRARRCRPAVLLLTAVDLLGRDRDGLGEDARVMAVLRHLLLNEDPLNSCPPLMVVATTSRAQDLPADVQTAFPHELEVPALSEGQRLSILRALTAHLPLGQEVNLAQLARRCAGFVVGDLYALLTHSSRAACTRIKNSGLAGGLTEEDEGELCAAGFPLLAEDFGQALEQLQTAHSQAVGAPKIPSVSWHDVGGLQEVKKEILETIQLPLEHPELLSLGLRRSGLLLHGPPGTGKTLLAKAVATECSLTFLSVKGPELINMYVGQSEENVREVFARARAAAPCIIFFDELDSLAPSRGRSGDSGGVMDRVVSQLLAELDGLHSTQDVFVIGATNRPDLLDPALLRPGRFDKLVFVGANEDRASQLRVLSAITRKFKLEPSVSLVNVLDCCPPQLTGADLYSLCSDAMTAALKRRVHDLEEGLEPGSSALMLTMEDLLQAAARLQPSVSEQELLRYKRIQRKFAAC [PEX6] | 0.167 | -0.158 | -0.844 | -0.711 |  | 
MAKAAASSSLEDLDLSGEEVQRLTSAFQDPEFRRMFSQYAEELTDPENRRRYEAEITALERERGVEVRFVHPEPGHVLRTSLDGARRCFVNVCSNALVGAPSSRPGSGGDRGAAPGSHWSLPYSLAPGREYAGRSSSRYMVYDVVFHPDALALARRHEGFRQMLDATALEAVEKQFGVKLDRRNAKTLKAKYKGTPEAAVLRTPLPGVIPARPDGEPKGPLPDFPYPYQYPAAPGPRAPSPPEAALQPAPTEPRYSVVQRHHVDLQDYRCSRDSAPSPVPHELVITIELPLLRSAEQAALEVTRKLLCLDSRKPDYRLRLSLPYPVDDGRGKAQFNKARRQLVVTLPVVLPAARREPAVAVAAAAPEESADRSGTDGQACASAREGEAGPARSRAEDGGHDTCVAGAAGSGVTTLGDPEVAPPPAAAGEERVPKPGEQDLSRHAGSPPGSVEEPSPGGENSPGGGGSPCLSSRSLAWGSSAGRESARGDSSVETREESEGTGGQRSACAMGGPGTKSGEPLCPPLLCNQDKETLTLLIQVPRIQPQSLQGDLNPLWYKLRFSAQDLVYSFFLQFAPENKLSTTEPVISISSNNAVIELAKSPESHGHWREWYYGVNNDSLEERLFVNEENVNEFLEEVLSSPFKQSMSLTPPLIEVLQVTDNKIQINAKLQECSNSDQLQGKEERVNEESHLTEKEYIEHCNTPTTDSDSSIAVKALQIDSFGLVTCFQQESLDVSQMILGKSQQPESKMQSEFIKEKSATCSNEEKDNLNESVITEEKETDGDHLSSLLNKTTVHNIPGFDSIKETNMQDGSVQVIKDHVTNCAFSFQNSLLYDLD [DNAAF2] | -0.0763 | 0.11 | -0.286 | -0.17 |  | 
MMPSRTNLATGIPSSKVKYSRLSSTDDGYIDLQFKKTPPKIPYKAIALATVLFLIGAFLIIIGSLLLSGYISKGGADRAVPVLIIGILVFLPGFYHLRIAYYASKGYRGYSYDDIPDFDD [TMEM230] | 0.0716 | -0.0463 | -1.72 | -2.3 |  | 
MAGSYPEGAPAVLADKRQQFGSRFLRDPARVFHHNAWDNVEWSEEQAAAAERKVQENSIQRVCQEKQVDYEINAHKYWNDFYKIHENGFFKDRHWLFTEFPELAPSQNQNHLKDWFLENKSEVPECRNNEDGPGLIMEEQHKCSSKSLEHKTQTLPVEENVTQKISDLEICADEFPGSSATYRILEVGCGVGNTVFPILQTNNDPGLFVYCCDFSSTAIELVQTNSEYDPSRCFAFVHDLCDEEKSYPVPKGSLDIIILIFVLSAIVPDKMQKAINRLSRLLKPGGMMLLRDYGRYDMAQLRFKKGQCLSGNFYVRGDGTRVYFFTQEELDTLFTTAGLEKVQNLVDRRLQVNRGKQLTMYRVWIQCKYCKPLLSSTS [METTL2A] | 0.185 | 0.0978 | 0.497 | 0.608 |  | 
MSVHYTLNLRVFWPLVTGLCTALVCLYHVLRGSGGARAEPADGVDGGFPLLKVAVLLLLSYVLLRCRHAVRQRFLPGSPRLEGHAAFSSRHFREPGLSILLESYYEHEVRLSPHVLGHSKAHVSRIVGELVRAGRARGSPGLIPGGALALAFRGDFIQVGSAYEQHKIRRPDSFDVLVPLRLPPLVALEPRSLGEEPALAPAFRGCFLCALKAPPSPSGASGGHWLRDCKPFADAFCVDVRGRRHLSATLVLRWFQSHLQRSLATVRYSLEGRCRVTLTPGGLEQPPTLHILPCRTDYGCCRLSMAVRLIPAVHLGDGVFLVAPPPPPLPSAPLLELPEGLRAEALWGVNTARQEQKLLSWLQERAAPGACYLKCLQLLKALRDLGARGLDSAAATQWGRILSSYVLKTVLLAVLLRKGAPGQGWDEEHLGRCLEELVQFLRDCLLRRHTLFHCVLGPGGAAAEVGPLPKALREAAPVDLLAAFDGHARELAAARLLSTWQRLPQLLRAYGGPRYLARCPPPRSQRTQGFLEGEP [ITPRIPL2] | -0.164 | 0.00884 |  |  | 53.8 °C | 55.4 °C
MARGQQKIQSQQKNAKKQAGQKKKQGHDQKAAAKAALIYTCTVCRTQMPDPKTFKQHFESKHPKTPLPPELADVQA [ZNF706] | -0.28 | 0.171 |  |  | 57.5 °C | 54.1 °C
METPGASASSLLLPAASRPPRKREAGEAGAATSKQRVLDEEEYIEGLQTVIQRDFFPDVEKLQAQKEYLEAEENGDLERMRQIAIKFGSALGKMSREPPPPYVTPATFETPEVHAGTGVVGNKPRPRGRGLEDGEAGEEEEKEPLPSLDVFLSRYTSEDNASFQEIMEVAKERSRARHAWLYQAEEEFEKRQKDNLELPSAEHQAIESSQASVETWKYKAKNSLMYYPEGVPDEEQLFKKPRQVVHKNTRFLRDPFSQALSRCQLQQAAALNAQHKQGKVGPDGKELIPQESPRVGGFGFVATPSPAPGVNESPMMTWGEVENTPLRVEGSETPYVDRTPGPAFKILEPGRRERLGLKMANEAAAKNRAKKQEALRRVTENLASLTPKGLSPAMSPALQRLVSRTASKYTDRALRASYTPSPARSTHLKTPASGLQTPTSTPAPGSATRTPLTQDPASITDNLLQLPARRKASDFF [DGCR14] | 0.334 | 0.458 |  |  | 50 °C | 52.4 °C
TAF6 | 0.14 | 0.046 |  |  | 49.1 °C | 49.6 °C
MMFRDQVGILAGWFKGWNECEQTVALLSLLKRVTRTQARFLQLCLEHSLADCNDIHLLESEANSAAIVSQWQQESKEKVVSLLLSHLPLLQPGNTEAKSEYMRLLQKVLAYSIESNAFIEESRQLLSYALIHPATTLEDRNALALWLSHLEERLASGFRSRPEPSYHSRQGSDEWGGPAELGPGEAGPGWQDKPPRENGHVPFHPSSSVPPAINSIGSNANTGLPCQIHPSPLKRSMSLIPTSPQVPGEWPSPEELGARAAFTTPDHAPLSPQSSVASSGSEQTEEQGSSRNTFQEDGSGMKDVPSWLKSLRLHKYAALFSQMSYEEMMTLTEQHLESQNVTKGARHKIALSIQKLRERQSVLKSLEKDVLEGGNLRNALQELQQIIITPIKAYSVLQATVAAATTTPTAKDGAPGEPPLPGAEPPLAHPGTDKGTEAKDPPAVENYPPPPAPAPTDGSEPAPAPVADGDIPSQFTRVMGKVCTQLLVSRPDEENITSYLQLIEKCLTHEAFTETQKKRLLSWKQQVLKLLRTFPRKAALEMQNYRQQKGWAFGSNSLPIAGSVGMGVARRTQRQFPMPPRALPPGRMGLLSPSGIGGVSPRHALTSPSLGGQGRQNLWFANPGGSNSMPSQSRSSVQRTHSLPVHSSPQAILMFPPDCPVPGPDLEINPTLESLCLSMTEHALGDGTDKTSTI [SAMD4B] | 0.549 | -0.0818 |  |  | 50.8 °C | 51.4 °C
